The results in this text go back to patent US8012929B2, “Peptides directed for diagnosis and treatment of amyloid-associated diseases” (Tel Aviv University Future Technology Development L.P., priority 2002, dated 2011).

Ends that are not written are not given here.

Format in all cases: physicochemical
Series [1] is described as follows: Kinetic aggregation assay, turbidity at 405 nm (Example 8). Here is the method: Kinetic Aggregation Assay—freshly prepared peptide stock solutions were generated by dissolving the lyophilized form of the peptides in dimethyl sulfoxide (DMSO) at a concentration of 100 mg/ml. To avoid any pre-aggregation, fresh stock solutions were prepared for each experiment. […] Turbidity data were collected at 405 nm. Buffer solution containing the same amount of DMSO as the tested samples was used as blank, which was subtracted from the results. Turbidity was measured continuously at room temperature using THERMOmax ELISA plate reader (Molecular Devices, Sunnyvale Calif.).

A short description of series [2]: Congo Red staining and birefringence (Example 9). Here is the method: Congo Red Staining and Birefringence—A 10 μL suspension of 8 mg/ml peptide solution in 10 mM Tris buffer, pH 7.2 aged for at least one day was allowed to dry overnight on a glass microscope slide. Staining was performed by the addition of a 10 μL suspension of saturated Congo Red (CR) and NaCl in 80% ethanol (v/v) solution as previously described [Puchtler (1966) Supra]. The solution was filtered via 0.45 μm filter. The slide was then dried for few hours. Birefringence was determined with a SZX-12 Stereoscope (Olympus, Hamburg, Germany) equipped with cross polarizers.

Series [3] can be described thus: Transmission electron microscopy of aged peptides (Example 10). The settings on record: for fibrilar supramolecular ultrastructures by electron microscopy: peptides derived from amyloid proteins, mild conditions. Here is the method: Transmission Electron Microscopy—A 10 μL sample of 8 mg/ml peptide solution in 10 mM Tris buffer, pH 7.2 aged for at least one day was placed on 400-mesh copper grids (SPI supplies, West Chester Pa.) covered by carbon-stabilized Formvar film. Following 1 minute, excess fluid was removed, and the grid was then negatively stained with 2% uranyl acetate in water for another two minutes. Samples were viewed in a JEOL 1200EX electron microscope operating at 80 kV.

A short description of series [4]: Fourier transform infrared spectroscopy of aged peptides (Example 11). The following applies: for secondary structure by FT-IR (amide I): Calcitonin-derived peptides; for secondary structure by FT-IR: hIAPP peptide fragments, aged solutions from turbidity assay. On the procedure: Fourier Transform Infrared Spectroscopy—Infrared spectra were recorded using a Nicolet Nexus 470 FT-IR spectrometer with a DTGS detector. Samples of aged peptide solutions, taken from turbidity assay, were suspended on a CaF2 widows (Sigma)-plate and dried by vacuum. The peptide deposits were resuspended with […] and subsequently dried to form thin films. The resuspension procedure was repeated twice to ensure maximal hydrogen to deuterium exchange. The measurements were taken using a 4 cm^−1 resolution and 2000 scans averaging. The transmittance minima values were determined by the OMNIC analysis program (Nicolet).

Where [5] appears, read: Medin-derived peptides, aged 4 days.
[6] abbreviates: Calcitonin-derived peptides, 0.02M NaCl, 0.01M Tris pH 7.2, aged 2 days.
Where [7] appears, read: hIAPP peptide fragments, 8 mg/ml, 8% DMSO, monitored two hours.
Setting [8] is: hIAPP peptide fragments, 8 mg/ml aged at least one day.

In the case of H-NAGSVQ-OH, in series [1] (Medin-derived peptides), the “turbidity at 405 nm” value is recorded as “significantly lower turbidity”. The “Congo Red birefringence” value in series [2] (Medin-derived peptides) is on record as “some degree of birefringence could still be detected”. In series [3] (setting [5]), the “structures by electron microscopy” value is “no clear fibrillar structures could be detected”.

For SGIFTN (also: EG modification), the “fibrilar supramolecular ultrastructures by electron microscopy” value (“fibrilar supramolecular ultrastructures” below) in series [3] is listed as “filamentous structures were observed”.

As for ERGFF, in series [3], the “fibrilar supramolecular ultrastructures” value is “filamentous structures were observed”.

For the substance RALDFA, in series [3], the “fibrilar supramolecular ultrastructures” value was “filamentous structures were observed”.

With SFNNG (also: EG modification), in series [3], the “fibrilar supramolecular ultrastructures” value is “filamentous structures were observed”.

Consider NH2-DFNKF-COOH (H-DFNKF-OH), for which the “Congo Red birefringence” value in series [2] (Calcitonin-derived peptides) is “clear and strong”. Moreover, the “structures by electron microscopy” value in series [3] (setting [6]) is “clearly seen with high frequency”. Moreover, in series [4], the “secondary structure by FT-IR (amide I)” value is “consistent with anti-parallel β-sheet structure”.

With LFNQTG, the “fibrilar supramolecular ultrastructures” value in series [3] is reported as “filamentous structures were observed”.

As to FENKF, the “fibrilar supramolecular ultrastructures” value in series [3] is “filamentous structures were observed”.

In the case of SNFLN (also: EG modification), the “fibrilar supramolecular ultrastructures” value in series [3] is given as “filamentous structures were observed”.

As for GTFQIN, the “fibrilar supramolecular ultrastructures” value in series [3] is on record as “filamentous structures were observed”.

Turning to GLVFVS, the “fibrilar supramolecular ultrastructures” value in series [3] is recorded as “filamentous structures were observed”.

As for NFLVHSS, the “turbidity at 405 nm” value in series [1] (setting [7]) is “high turbidity”. Besides, the “Congo Red birefringence” value in series [2] (setting [8]) was “typical birefringence”. Further, in series [3] (setting [8]), the “structures by electron microscopy” value is recorded as “large broad ribbon-like fibrils”. Also, in series [4], the “secondary structure by FT-IR” value is given as “classical for an anti-parallel β-sheet structure”.

For RDFLDR, the “fibrilar supramolecular ultrastructures” value in series [3] is on record as “filamentous structures were observed”.

NH2-FGSV -COOH (H-FGSV-OH): the “turbidity at 405 nm” value in series [1] (Medin-derived peptides) is recorded as “gradual increase in turbidity”. Moreover, the “Congo Red birefringence” value in series [2] (Medin-derived peptides) was “no birefringence”. For the same substance, the “structures by electron microscopy” value in series [3] (setting [5]) is “no fibrillar structures could be found”.

NH2- FNKF-COOH (H-FNKF-OH): the “Congo Red birefringence” value in series [2] (Calcitonin-derived peptides) is on record as “lower but significant”. Also, the “structures by electron microscopy” value in series [3] (setting [6]) is reported as “only amorphous aggregates could be found”. For the same substance, the “secondary structure by FT-IR (amide I)” value in series [4] is “typical of a non-ordered structure”.

For NFGAILSS, the “turbidity at 405 nm” value in series [1] (hIAPP 22-29 and hydrophobic analogues, up to 24 hours) is “significant increase in turbidity”. In addition, the “structures by electron microscopy” value in series [3] (hIAPP 22-29 and analogues, five days of incubation) was “well-ordered fibrils”.

Take NH2-FGSVQ -COOH (H-FGSVQ-OH): the “turbidity at 405 nm” value in series [1] (Medin-derived peptides) is “gradual increase in turbidity”. For the same substance, the “Congo Red birefringence” value in series [2] (Medin-derived peptides) is “no birefringence”. For the same substance, in series [3] (setting [5]), the “structures by electron microscopy” value was “somewhat fibrillar and ordered structure could be seen”.

Turning to “NFGSVQFV [published amyloidogenic octapeptide of Medin, reference compound]”, the “turbidity at 405 nm” value in series [1] (Medin-derived peptides) is given as “too fast to be measured”. In series [2] (Medin-derived peptides), the “Congo Red birefringence” value was “significant birefringence”. Further, the “structures by electron microscopy” value in series [3] (setting [5]) is “Fibrillar structures were clearly seen”.

With NH2-DFN -COOH (H-Asp-Phe-Asn-OH), in series [2] (Calcitonin-derived peptides), the “Congo Red birefringence” value is recorded as “lower but significant”. For the same substance, the “structures by electron microscopy” value in series [3] (setting [6]) is on record as “more ordered structures”. Moreover, the “secondary structure by FT-IR (amide I)” value in series [4] is “consistent with a mixture of β-sheet and random structures”.

Consider FLVHS, for which the “turbidity at 405 nm” value in series [1] (setting [7]) is on record as “high turbidity”. In addition, the “Congo Red birefringence” value in series [2] (setting [8]) was “typical birefringence”. For the same substance, the “structures by electron microscopy” value in series [3] (setting [8]) was “large broad ribbon-like fibrils”.

For NH2-NFGSV -COOH (H-NFGSV-OH), in series [1] (Medin-derived peptides), the “turbidity at 405 nm” value is “highest degree of aggregation within minutes of incubation”. Besides, in series [2] (Medin-derived peptides), the “Congo Red birefringence” value is on record as “very low degree of birefringence”. In addition, the “structures by electron microscopy” value in series [3] (setting [5]) is recorded as “network of fibrous structures”.

On to FLVH, for which the “turbidity at 405 nm” value in series [1] (setting [7]) was “almost no turbidity at all”. In addition, the “Congo Red birefringence” value in series [2] (setting [8]) is listed as “no birefringence”. The “structures by electron microscopy” value in series [3] (setting [8]) was “amorphous aggregates”. Further, the “amyloid fibril formation (EM, CR staining, FT-IR)” value in series [3] (incubated for two months) is on record as “no evidence for amyloid fibril formation was detected”. Moreover, in series [4], the “secondary structure by FT-IR” value is recorded as “typical to random coil structure”.

Regarding NFLVHSSNN, in series [1] (setting [7]), the “turbidity at 405 nm” value is recorded as “very low turbidity”. In addition, in series [2] (setting [8]), the “Congo Red birefringence” value is “weaker characteristic birefringence”. Further, the “structures by electron microscopy” value in series [3] (setting [8]) is given as “long thin coiling filaments”. Further, in series [4], the “secondary structure by FT-IR” value was “large β-sheet content”.

With LQNFTL, the “fibrilar supramolecular ultrastructures” value in series [3] was “filamentous structures were observed”.

Consider SFFSFL (also: EG modification), for which the “fibrilar supramolecular ultrastructures” value in series [3] is “filamentous structures were observed”.

Consider NH2-GSVQ -COOH (H-GSVQ-OH), for which the “Congo Red birefringence” value in series [2] (Medin-derived peptides) is “unexpected high level of birefringence”. Moreover, the “structures by electron microscopy” value in series [3] (setting [5]) is “no fibrillar structures could be found”.

Take NFLVH: the “turbidity at 405 nm” value in series [1] (setting [7]) was “almost no turbidity at all”. The “Congo Red birefringence” value in series [2] (setting [8]) was “powerful smear of birefringence at the edges of the sample”. Also, the “structures by electron microscopy” value in series [3] (setting [8]) was “thin and short”. Also, the “secondary structure by FT-IR” value in series [4] is reported as “indicative of β-sheet”.

With NH2-DFNK -COOH (H-DFNK-OH), in series [2] (Calcitonin-derived peptides), the “Congo Red birefringence” value is reported as “lower level of birefringence”. In addition, the “structures by electron microscopy” value in series [3] (setting [6]) is on record as “also formed fibrillar structures”. In addition, the “secondary structure by FT-IR (amide I)” value in series [4] was “less typical of a β-sheet structure”.

Consider FLVHSS, for which, in series [1] (setting [7]), the “turbidity at 405 nm” value is “high turbidity”. For the same substance, the “Congo Red birefringence” value in series [2] (setting [8]) is “typical birefringence”. Besides, the “structures by electron microscopy” value in series [3] (setting [8]) is recorded as “large broad ribbon-like fibrils”. The “secondary structure by FT-IR” value in series [4] is reported as “major minimum at 1626”.

Consider TLIFGG (also: EG modification), for which the “fibrilar supramolecular ultrastructures” value in series [3] is “filamentous structures were observed”.

As to NH2-NFGSVQ -COOH (H-NFGSVQ-OH), the “turbidity at 405 nm” value in series [1] (Medin-derived peptides) was “gradual increase in turbidity”. The “Congo Red birefringence” value in series [2] (Medin-derived peptides) is “characteristic bright and strong green-gold birefringence”. The “structures by electron microscopy” value in series [3] (setting [5]) is reported as “Fibrillar structures were clearly seen”.
